Experimental data as given in US20240247043A1 (WUHAN YZY BIOPHARMA, published 2024).
Blank lines part the entries; values can stand above or below the binder they belong to.

B1: human FGL1-His antigen (ACRO, FG1-H52Hy) (ligand, UniProt Q08830 23-312, looked up)
chain: LEDCAQEQMRLRAQVRLLETRVKQQQVKIKQLLQENEVQFLDKGDENTVIDLGSKRQYADCSEIFNDGYKLSGFYKIKPLQSPAEFSVYCDMSDGGGWTVIQRRSDGSENFNRGWKDYENGFGNFVQKHGEYWLGNKNLHFLTTQEDYTLKIDLADFEKNSRYAQYKNFKVGDEKNFYELNIGEYSGTAGDSLAGNFHPEVQWWASHQRMKFSTWDRDHDNYEGNCAEEDQSGWWFNRCHSANLNGVYYSGPYTAKTDNGIVWYTWHGWWYSLKSVVMKIRPNDFIPNVI
notes: Bought His-tagged protein; also called hFGL1; hFGL1 antigen

Experiments:
[1] = molecular target: T1, Y103-4A (LAG3 D1-D2-D3-D4-Fab, anti-PD-L1 Fab) (human); assay: Biacore SPR, antigen amine-coupled on CM5 chip, 1:1 fit
T1 construct: Dimer of LAG-3-Linker3-VL-CL and LAG-3-Linker3-VH-CH1; the Fab is specific for PD-L1

[2] = molecular target: T2, Y103-7A (LAG3 D1-D2-Fab, anti-PD-L1 Fab) (human); assay: as above
T2 construct: Dimer of LAG-3-Linker3-VL-CL and LAG-3-Linker3-VH-CH1; the Fab is specific for PD-L1

[3] = molecular target: T3, LAG-3 D1-D2-D3-Fc mutant M212A (UniProt P18627 23-352); assay: procedures of Examples 2-4 repeated; method not told here
T3 construct: domain: D1-D2-D3; also called LAG-3 D1-D2-D3-Linker-Fc M212A

[4] = molecular target: T4, LAG-3 D1-D2-D3-Fc mutant E201G (UniProt P18627 23-352); assay: as above
T4 construct: domain: D1-D2-D3; also called LAG-3 D1-D2-D3-Linker-Fc E201G

[5] = molecular target: T5, LAG-3 D1-D2-D3-Fc mutant E201D (UniProt P18627 23-352); assay: as above
T5 construct: domain: D1-D2-D3; also called LAG-3 D1-D2-D3-Linker-Fc E201D

[6] = molecular target: T6, LAG-3 D1-D2-D3-Fc mutant P207I (UniProt P18627 23-352); assay: as above
T6 construct: domain: D1-D2-D3; also called LAG-3 D1-D2-D3-Linker-Fc P207I

[7] = molecular target: B1; assay: ELISA, same method as in Example 3: construct coated, serially diluted human FGL1 added, OD450

Binder: B1
Kd [1]: 0.929 nM
Kd [2]: 2.46 nM
binding result [3]: binds
binding result [4]: binds
binding result [5]: binds
binding result [6]: binds

binding result [7]: binds
B2: LAG-3 D1-D2-LZ wild type W1161-LZ (other)
chain 1: LQPGAEVPVVWAQEGAPAQLPCSPTIPLQDLSLLRRAGVTWQHQPDSGPPAAAPGHPLAPGPHPAAPSSWGPRPRRYTVLSVGPGGLRSGRLPLQPRVQLDERGRQRGDFSLWLRPARRADAGEYRAAVHLRDRALSCRLRLRLGQASMTASPPGSLRASDWVILNCSFSRPDRPASVHWFRNRGQGRVPVRESPHHHLAESFLFLPQVSPMDSGPWGCILTYRDGFNVSIMYNLTVLGGGGGSGGGGSEPKSSDKTHTCPPCPRIARLEEKVKTLKAQNSELASTANMLREQVAQLKQKVMNHHHHHH
chain 2: LQPGAEVPVVWAQEGAPAQLPCSPTIPLQDLSLLRRAGVTWQHQPDSGPPAAAPGHPLAPGPHPAAPSSWGPRPRRYTVLSVGPGGLRSGRLPLQPRVQLDERGRQRGDFSLWLRPARRADAGEYRAAVHLRDRALSCRLRLRLGQASMTASPPGSLRASDWVILNCSFSRPDRPASVHWFRNRGQGRVPVRESPHHHLAESFLFLPQVSPMDSGPWGCILTYRDGFNVSIMYNLTVLGGGGGSGGGGSEPKSSDKTHTCPPCPLTDTLQAETDQLEDEKSALQTEIANLLKEKEKLEFILAAHHHHHH
notes: Leucine zipper dimer of D1-D2-Linker2-c-JUN-His and D1-D2-Linker2-c-FOS-His

binding result [7]: binds
B3: LAG-3 D1-D2-LZ mutant WS323-LZ (N183A) (other)
chain 1: LQPGAEVPVVWAQEGAPAQLPCSPTIPLQDLSLLRRAGVTWQHQPDSGPPAAAPGHPLAPGPHPAAPSSWGPRPRRYTVLSVGPGGLRSGRLPLQPRVQLDERGRQRGDFSLWLRPARRADAGEYRAAVHLRDRALSCRLRLRLGQASMTASPPGSLRASDWVILNCSFSRPDRPASVHWFRARGQGRVPVRESPHHHLAESFLFLPQVSPMDSGPWGCILTYRDGFNVSIMYNLTVLGGGGGSGGGGSEPKSSDKTHTCPPCPRIARLEEKVKTLKAQNSELASTANMLREQVAQLKQKVMNHHHHHH
chain 2: LQPGAEVPVVWAQEGAPAQLPCSPTIPLQDLSLLRRAGVTWQHQPDSGPPAAAPGHPLAPGPHPAAPSSWGPRPRRYTVLSVGPGGLRSGRLPLQPRVQLDERGRQRGDFSLWLRPARRADAGEYRAAVHLRDRALSCRLRLRLGQASMTASPPGSLRASDWVILNCSFSRPDRPASVHWFRARGQGRVPVRESPHHHLAESFLFLPQVSPMDSGPWGCILTYRDGFNVSIMYNLTVLGGGGGSGGGGSEPKSSDKTHTCPPCPLTDTLQAETDQLEDEKSALQTEIANLLKEKEKLEFILAAHHHHHH
notes: Leucine zipper dimer; D2 entry already carries N183A; copies: 1 + 1

binding result [7]: binds
B4: LAG-3 D1-D2-LZ mutant WS331-LZ (P195A) (other)
chain 1: LQPGAEVPVVWAQEGAPAQLPCSPTIPLQDLSLLRRAGVTWQHQPDSGPPAAAPGHPLAPGPHPAAPSSWGPRPRRYTVLSVGPGGLRSGRLPLQPRVQLDERGRQRGDFSLWLRPARRADAGEYRAAVHLRDRALSCRLRLRLGQASMTASPPGSLRASDWVILNCSFSRPDRPASVHWFRNRGQGRVPVRESAHHHLAESFLFLPQVSPMDSGPWGCILTYRDGFNVSIMYNLTVLGGGGGSGGGGSEPKSSDKTHTCPPCPRIARLEEKVKTLKAQNSELASTANMLREQVAQLKQKVMNHHHHHH
chain 2: LQPGAEVPVVWAQEGAPAQLPCSPTIPLQDLSLLRRAGVTWQHQPDSGPPAAAPGHPLAPGPHPAAPSSWGPRPRRYTVLSVGPGGLRSGRLPLQPRVQLDERGRQRGDFSLWLRPARRADAGEYRAAVHLRDRALSCRLRLRLGQASMTASPPGSLRASDWVILNCSFSRPDRPASVHWFRNRGQGRVPVRESAHHHLAESFLFLPQVSPMDSGPWGCILTYRDGFNVSIMYNLTVLGGGGGSGGGGSEPKSSDKTHTCPPCPLTDTLQAETDQLEDEKSALQTEIANLLKEKEKLEFILAAHHHHHH
notes: Leucine zipper dimer; D2 entry already carries P195A; copies: 1 + 1

binding result [7]: binds
B5: LAG-3 D1-D2-LZ mutant WS447-LZ (E201D) (other)
chain 1: LQPGAEVPVVWAQEGAPAQLPCSPTIPLQDLSLLRRAGVTWQHQPDSGPPAAAPGHPLAPGPHPAAPSSWGPRPRRYTVLSVGPGGLRSGRLPLQPRVQLDERGRQRGDFSLWLRPARRADAGEYRAAVHLRDRALSCRLRLRLGQASMTASPPGSLRASDWVILNCSFSRPDRPASVHWFRNRGQGRVPVRESPHHHLADSFLFLPQVSPMDSGPWGCILTYRDGFNVSIMYNLTVLGGGGGSGGGGSEPKSSDKTHTCPPCPRIARLEEKVKTLKAQNSELASTANMLREQVAQLKQKVMNHHHHHH
chain 2: LQPGAEVPVVWAQEGAPAQLPCSPTIPLQDLSLLRRAGVTWQHQPDSGPPAAAPGHPLAPGPHPAAPSSWGPRPRRYTVLSVGPGGLRSGRLPLQPRVQLDERGRQRGDFSLWLRPARRADAGEYRAAVHLRDRALSCRLRLRLGQASMTASPPGSLRASDWVILNCSFSRPDRPASVHWFRNRGQGRVPVRESPHHHLADSFLFLPQVSPMDSGPWGCILTYRDGFNVSIMYNLTVLGGGGGSGGGGSEPKSSDKTHTCPPCPLTDTLQAETDQLEDEKSALQTEIANLLKEKEKLEFILAAHHHHHH
notes: Leucine zipper dimer; D2 entry already carries E201D; copies: 1 + 1

binding result [7]: binds
B6: LAG-3 D1-D2-LZ mutant WS451-LZ (E201G) (other)
chain 1: LQPGAEVPVVWAQEGAPAQLPCSPTIPLQDLSLLRRAGVTWQHQPDSGPPAAAPGHPLAPGPHPAAPSSWGPRPRRYTVLSVGPGGLRSGRLPLQPRVQLDERGRQRGDFSLWLRPARRADAGEYRAAVHLRDRALSCRLRLRLGQASMTASPPGSLRASDWVILNCSFSRPDRPASVHWFRNRGQGRVPVRESPHHHLAGSFLFLPQVSPMDSGPWGCILTYRDGFNVSIMYNLTVLGGGGGSGGGGSEPKSSDKTHTCPPCPRIARLEEKVKTLKAQNSELASTANMLREQVAQLKQKVMNHHHHHH
chain 2: LQPGAEVPVVWAQEGAPAQLPCSPTIPLQDLSLLRRAGVTWQHQPDSGPPAAAPGHPLAPGPHPAAPSSWGPRPRRYTVLSVGPGGLRSGRLPLQPRVQLDERGRQRGDFSLWLRPARRADAGEYRAAVHLRDRALSCRLRLRLGQASMTASPPGSLRASDWVILNCSFSRPDRPASVHWFRNRGQGRVPVRESPHHHLAGSFLFLPQVSPMDSGPWGCILTYRDGFNVSIMYNLTVLGGGGGSGGGGSEPKSSDKTHTCPPCPLTDTLQAETDQLEDEKSALQTEIANLLKEKEKLEFILAAHHHHHH
notes: Leucine zipper dimer; D2 entry already carries E201G; copies: 1 + 1
